The values below come from the supplement of paper PMC10126150.

In this data set the test system is ATP. The data set can be described thus: switch fluorescence ratio, 500 uM ATP over buffer (Cy3 cluster intensity, sum of 5 cycles each) (fold (ratio)); higher = stronger signal-on switching upon ATP binding; sequences stand for … in TCGTCGGCAGCGTCAGATGTGTATAAGAGACAGTTTTTTTTTTTTTTTTTTTTTTTTT…TC. As to conditions: aptamer strand: ATP DNA aptamer (quencher-CACCTGGGGGAGTATTGCGGAGGAAGG + anchor), 100 nM annealed; ATP concentration: 500 uM. In short, it runs like this:
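Clusters carrying Cy3-labelled switching strands on a modified Illumina MiSeq flow-cell were annealed to 100 nM quencher-labelled ATP aptamer and imaged in selection buffer. They were imaged again after 15 min with 500 uM ATP at 22 °C, over five buffer/ATP cycles with NaOH stripping and re-annealing in between. For each cluster, the fluorescence ratio is the summed Cy3 intensity of the target cycles divided by that of the buffer cycles, averaged per switch-domain sequence. Clusters outside 100-1000 RFU were left out.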

± gives the standard deviation of the averaged measurements.
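Also: ATP exposure 15 min at 22 °C before imaging.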

Take ATTGTGTACT: the switch fluorescence ratio was determined as 1 ± 0.031.

On to ATTGTTAAGC, for which the switch fluorescence ratio was 1.02 ± 0.075.

Take ATTGTTACGT: the switch fluorescence ratio was determined as 0.998 ± 0.012.

Take ATTGTTCAAA: the switch fluorescence ratio was found to be 1 ± 0.015.

Take ATTGTTGTTT: the switch fluorescence ratio came out at 0.981 ± 0.019.

As for ATTTAAAACC, the switch fluorescence ratio amounted to 1.06 ± 0.015.

ATTTAAAAGT: the switch fluorescence ratio is 0.991 ± 0.037.

With ATTTAAATAG, the switch fluorescence ratio came out at 0.993 ± 0.035.

On to ATTTAACGGT, for which the switch fluorescence ratio amounted to 1.03 ± 0.022.

As to ATTTAAGTT, the switch fluorescence ratio amounted to 1.0014 ± 0.00081.

Regarding ATTTAATTTT, the switch fluorescence ratio was 1.02 ± 0.019.

Take ATTTAGACGT: the switch fluorescence ratio stood at 0.974 ± 0.026.

Consider ATTTAGGGGG, for which the switch fluorescence ratio stood at 0.966 ± 0.02.

For ATTTAGTGAC, the switch fluorescence ratio worked out at 1.02 ± 0.051.

As to ATTTAGTGGT, the switch fluorescence ratio turned out to be 1 ± 0.028.

Turning to ATTTATATAT, the switch fluorescence ratio was 1 ± 0.05.

As to ATTTATTTGC, the switch fluorescence ratio was determined as 1.01 ± 0.022.

On to ATTTCGACAC, for which the switch fluorescence ratio is 1.0254 ± 0.001.

For the sequence ATTTCGCCCG, the switch fluorescence ratio came to 1.07 ± 0.037.

In the case of ATTTCGGCAC, the switch fluorescence ratio turned out to be 0.9959 ± 0.0091.

Take ATTTCGTGGG: the switch fluorescence ratio was 0.978 ± 0.023.

For ATTTCTCAGG, the switch fluorescence ratio turned out to be 1.07 ± 0.017.

Take ATTTCTGTTT: the switch fluorescence ratio came to 1 ± 0.015.

Take ATTTGAACAG: the switch fluorescence ratio turned out to be 0.978 ± 0.015.

With ATTTGAATTA, the switch fluorescence ratio was found to be 1.01 ± 0.034.

Consider ATTTGCAATT, for which the switch fluorescence ratio worked out at 1.03 ± 0.034.

As for ATTTGCAGCA, the switch fluorescence ratio was 1.02 ± 0.014.

ATTTGCCTGT: the switch fluorescence ratio came to 0.982 ± 0.033.

With ATTTGCGGTT, the switch fluorescence ratio is 0.9949 ± 0.0022.

ATTTGCTTTA: the switch fluorescence ratio turned out to be 1.02 ± 0.012.

With ATTTGGAGGG, the switch fluorescence ratio was 0.969 ± 0.0034.

With ATTTGGAGTC, the switch fluorescence ratio came out at 1 ± 0.018.

In the case of ATTTGGGAGT, the switch fluorescence ratio was 1 ± 0.025.

On to ATTTGGTGGG, for which the switch fluorescence ratio stood at 0.97 ± 0.05.

In the case of ATTTGTATCC, the switch fluorescence ratio came out at 0.994 ± 0.021.

As to ATTTGTATTC, the switch fluorescence ratio came out at 1.03 ± 0.031.

For ATTTGTCAAG, the switch fluorescence ratio is 0.999 ± 0.016.

Consider ATTTGTCAGA, for which the switch fluorescence ratio was 0.98 ± 0.015.

On to ATTTGTCCAA, for which the switch fluorescence ratio was determined as 0.993 ± 0.028.

Turning to ATTTGTGATG, the switch fluorescence ratio is 0.994 ± 0.047.

Consider ATTTGTTATT, for which the switch fluorescence ratio amounted to 1.01 ± 0.024.

ATTTTAACGT: the switch fluorescence ratio was 1.01 ± 0.046.

ATTTTAAGTT: the switch fluorescence ratio amounted to 0.99 ± 0.034.

Regarding ATTTTAATAG, the switch fluorescence ratio turned out to be 0.9909 ± 0.0056.

On to ATTTTACAGC, for which the switch fluorescence ratio amounted to 1.03 ± 0.0074.

Take ATTTTACCAT: the switch fluorescence ratio stood at 1.04 ± 0.075.

Regarding ATTTTACGAA, the switch fluorescence ratio is 1.028 ± 0.0065.

In the case of ATTTTAGATC, the switch fluorescence ratio came to 1.01 ± 0.034.

For the sequence ATTTTAGCTG, the switch fluorescence ratio was 1.01 ± 0.046.

Consider ATTTTAGGGT, for which the switch fluorescence ratio amounted to 0.989 ± 0.022.

Consider ATTTTAGTGC, for which the switch fluorescence ratio turned out to be 1.01 ± 0.053.

As to ATTTTATATT, the switch fluorescence ratio turned out to be 1.02 ± 0.032.

ATTTTATTTT: the switch fluorescence ratio is 1.01 ± 0.029.

Take ATTTTCGGCT: the switch fluorescence ratio is 0.99 ± 0.0036.

Take ATTTTCTCCG: the switch fluorescence ratio is 1.43 ± 0.63.

Take ATTTTCTTGC: the switch fluorescence ratio was 1 ± 0.038.

In the case of ATTTTGAACA, the switch fluorescence ratio stood at 1.019 ± 0.0062.

Regarding ATTTTGAAGA, the switch fluorescence ratio was found to be 1.01 ± 0.032.

With ATTTTGAATC, the switch fluorescence ratio is 0.973 ± 0.013.

For the sequence ATTTTGAGAC, the switch fluorescence ratio came out at 0.995 ± 0.026.

Regarding ATTTTGAGGA, the switch fluorescence ratio is 1.02 ± 0.015.

Consider ATTTTGAGGC, for which the switch fluorescence ratio was 1.02 ± 0.035.

ATTTTGCCGT: the switch fluorescence ratio was found to be 1.02 ± 0.027.

On to ATTTTGGAGC, for which the switch fluorescence ratio came out at 0.999 ± 0.058.

Consider ATTTTGGCAG, for which the switch fluorescence ratio is 0.99 ± 0.049.

For the sequence ATTTTGGGGA, the switch fluorescence ratio stood at 1.005 ± 0.01.

With ATTTTGGGGT, the switch fluorescence ratio worked out at 1 ± 0.014.

On to ATTTTGGTTT, for which the switch fluorescence ratio was determined as 0.989 ± 0.025.

On to ATTTTGTCGG, for which the switch fluorescence ratio is 0.968 ± 0.018.

Turning to ATTTTGTTTG, the switch fluorescence ratio turned out to be 0.994 ± 0.012.

Turning to ATTTTTACCT, the switch fluorescence ratio stood at 1.08 ± 0.19.

With ATTTTTATGA, the switch fluorescence ratio was 0.967 ± 0.015.

Take ATTTTTCTTA: the switch fluorescence ratio was 1.007 ± 0.0045.

In the case of ATTTTTGATC, the switch fluorescence ratio worked out at 1.02 ± 0.032.

As to ATTTTTGGCA, the switch fluorescence ratio is 0.995 ± 0.033.

Take ATTTTTGGGA: the switch fluorescence ratio came to 0.981 ± 0.028.

Turning to ATTTTTGTAG, the switch fluorescence ratio came to 1.01 ± 0.017.

Take ATTTTTTACG: the switch fluorescence ratio stood at 1.02 ± 0.031.

With ATTTTTTCGT, the switch fluorescence ratio came to 1.04 ± 0.036.

Regarding ATTTTTTGAG, the switch fluorescence ratio is 1 ± 0.034.

Consider ATTTTTTGCC, for which the switch fluorescence ratio stood at 0.962 ± 0.052.

Consider ATTTTTTTGC, for which the switch fluorescence ratio stood at 1.03 ± 0.029.

CAAAAAACGG: the switch fluorescence ratio turned out to be 1.13 ± 0.23.

For CAAAAAAGGG, the switch fluorescence ratio is 1.02 ± 0.021.

For the sequence CAAAAATGGC, the switch fluorescence ratio is 1.02 ± 0.011.

As for CAAAACCTGA, the switch fluorescence ratio came out at 1.2 ± 0.15.

Consider CAAAACGGTT, for which the switch fluorescence ratio stood at 1.02 ± 0.048.

Consider CAAAAGGGAG, for which the switch fluorescence ratio worked out at 1.036 ± 0.01.

CAAAAGGGGT: the switch fluorescence ratio is 1.004 ± 0.0063.

For CAAAAGTAGA, the switch fluorescence ratio stood at 0.991 ± 0.036.

For the sequence CAAAAGTTGA, the switch fluorescence ratio came to 1.01 ± 0.053.

On to CAAAATGTTC, for which the switch fluorescence ratio came out at 1.021 ± 0.0086.

On to CAAACGAGGT, for which the switch fluorescence ratio stood at 0.994 ± 0.026.

Turning to CAAACGCCGA, the switch fluorescence ratio is 1.103 ± 0.0045.

For the sequence CAAAGAGCTT, the switch fluorescence ratio worked out at 1 ± 0.028.

Take CAAAGATAGT: the switch fluorescence ratio came out at 0.996 ± 0.037.

Take CAAAGGAGGC: the switch fluorescence ratio came to 1.01 ± 0.048.

CAAAGGGCAA: the switch fluorescence ratio amounted to 1.11 ± 0.038.

For the sequence CAAAGGGGCG, the switch fluorescence ratio amounted to 0.975 ± 0.045.

With CAAAGGGTTA, the switch fluorescence ratio is 0.9906 ± 0.0086.

Turning to CAAAGTTATA, the switch fluorescence ratio amounted to 1.0129 ± 0.00033.

Regarding CAAATACGAT, the switch fluorescence ratio worked out at 1.05 ± 0.04.

Take CAAATCAGGA: the switch fluorescence ratio was found to be 1 ± 0.038.

Regarding CAAATGCATA, the switch fluorescence ratio came to 1.08 ± 0.017.

In the case of CAAATGGGAC, the switch fluorescence ratio amounted to 1.09 ± 0.061.

As for CAAATGGTGG, the switch fluorescence ratio turned out to be 1.02 ± 0.0022.

As to CAAATGTTAT, the switch fluorescence ratio amounted to 1.02 ± 0.0088.

As for CAAATTTAAG, the switch fluorescence ratio is 0.982 ± 0.028.

With CAAATTTGCT, the switch fluorescence ratio was found to be 0.967 ± 0.022.

As for CAACAACATT, the switch fluorescence ratio is 1.07 ± 0.12.

Take CAACATCTCG: the switch fluorescence ratio stood at 0.993 ± 0.019.

Take CAACATTTTC: the switch fluorescence ratio was found to be 1.03 ± 0.054.

CAACGAGGGG: the switch fluorescence ratio stood at 1.02 ± 0.039.

Regarding CAACGCGCGG, the switch fluorescence ratio was found to be 0.995 ± 0.045.

Turning to CAACGGGTTT, the switch fluorescence ratio was 0.997 ± 0.051.

For the sequence CAACTCTTTT, the switch fluorescence ratio was 0.998 ± 0.038.

On to CAACTGCAGC, for which the switch fluorescence ratio was determined as 1.26 ± 0.049.

On to CAACTGGGGC, for which the switch fluorescence ratio turned out to be 1.06 ± 0.022.

As to CAACTGTTTT, the switch fluorescence ratio came out at 1.04 ± 0.1.

CAAGAATCTG: the switch fluorescence ratio was 0.9606 ± 0.0091.
